Test results published in the supplement of paper PMC12764529.
± gives the half width of the 95% confidence interval.

Key:
[1] = folding stability dG unfold from trypsin proteolysis; higher = more stable
How it was run: (§1)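 Bayesian fitting of sequencing counts gave K50 for each design. Unfolding free energy followed by setting this against a sequence-predicted unfolded-state K50 and a shared folded-state K50, either per protease or with trypsin and chymotrypsin combined. The designs, under 80 residues and lacking cysteine, were digested in a PA-tagged cDNA display format at 11 threefold-diluted protease concentrations and without protease, and only those with AlphaFold2 dimer inter-PAE above 15 were kept.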

[2] = folding stability dG unfold from chymotrypsin proteolysis; higher = more stable
How it was run: as §1

[3] = folding stability dG unfold (combined trypsin and chymotrypsin); higher = more stable
How it was run: as §1

Row | Sequence | folding stability dG unfold [1] | folding stability dG unfold [2] | folding stability dG unfold [3]
1 | SAGGSAGGSMTIEEIKKLAEELGIEKVEIEKVKDGYYKIKIYNKKTGKKIEIIIKVNKDGKIVSAGGSAGGS [r12_170_TrROS_Hall] | 2.27 ± 0.17 kcal/mol | 3.9 ± 0.091 kcal/mol | 3.61 ± 0.26 kcal/mol
2 | SAGGSAGGSMTIPESEFKQMSEEELKKLLLENPEPVTVVTSDPEILERIKKIFEKLGIKITLESAGGSAGGS [r12_97_JUSTAS] | 2.4 ± 0.11 kcal/mol | 2.63 ± 0.12 kcal/mol | 2.59 ± 0.14 kcal/mol
3 | SAGGSAGGSMTITVTKVDFPPGLYEGLTIEELRKLLGDENLPIKETPVTVTVTPEKLAALLLSSAGGSAGGS [r12_178_JUSTAS] | 1.69 ± 0.036 kcal/mol | 0.778 ± 0.08 kcal/mol | 1.36 ± 0.096 kcal/mol
4 | SAGGSAGGSMTITYDPVSNTYTVNLSLEGGTKTYTVPSLEALKATLKAEGLPWGPPPITTVSASAGGSAGGS [r12_834_JUSTAS] | 3.43 ± 0.08 kcal/mol | 5.05 ± 0.063 kcal/mol | 4.96 ± 0.079 kcal/mol
5 | SAGGSAGGSMTIVIPKKTLEKMKPETIKKLLELAKELNTTITMNENAITIPVGKGTEEALKALSAGGSAGGS [r12_945_TrMRF] | 1.5 ± 0.07 kcal/mol | 1.05 ± 0.025 kcal/mol | 1.28 ± 0.073 kcal/mol
6 | SAGGSAGGSMTPANVVRIEPSPDGILRVTLTHPDGTVTTVEVSPDNLDIGAPDNVTDVTLAPVSAGGSAGGS [r20_194_TrMRF] | 0.932 ± 0.026 kcal/mol | 1.72 ± 0.023 kcal/mol | 1.44 ± 0.028 kcal/mol
7 | SAGGSAGGSMTTTVERSPSGKTTVTETETRKDAAGNEYTLVTTTTFDPNTTTSTTTTTVVPVSSAGGSAGGS [r12_57_JUSTAS] | 1.07 ± 0.062 kcal/mol | 1.64 ± 0.048 kcal/mol | 1.51 ± 0.086 kcal/mol
8 | SAGGSAGGSMTVTYTEVGDQLVVTTPDGRRYVITLSGDVTYDPATGTVTVPPGETMTPVPVPASAGGSAGGS [r20_158_JUSTAS] | 1.61 ± 0.021 kcal/mol | 2.13 ± 0.025 kcal/mol | 1.99 ± 0.039 kcal/mol
9 | SAGGSAGGSMVEEFLASLPPDATVTVDPSTGVVTVSLPAEGRTLTLTVDTATGTVTETERRPESAGGSAGGS [r12_82_JUSTAS] | 1.56 ± 0.028 kcal/mol | 1.762 ± 0.0075 kcal/mol | 1.71 ± 0.027 kcal/mol
10 | SAGGSAGGSMVIRVTVKLPNGEEKVFEIEVSEEELKNMSIEELKKLAEELGLPEDVKIELVPPSAGGSAGGS [r12_742_TrROS_Hall] | 3.29 ± 0.12 kcal/mol | 3.29 ± 0.17 kcal/mol | 3.33 ± 0.19 kcal/mol
11 | SAGGSAGGSMVITVDPSLSPEEAVERAKEEVKKEVPESEPVEVTVVIKDPETGKTTEIPVKLDSAGGSAGGS [r12_1051_JUSTAS] | 0.739 ± 0.047 kcal/mol | -1.17 ± 0.23 kcal/mol | 0.187 ± 0.26 kcal/mol
12 | SAGGSAGGSMVTIPTGTEEEVEKVIAELEKKGLKPKKVEKEGNKVTVEFPDGTKVELIIEPGKSAGGSAGGS [r20_93_JUSTAS] | 1.06 ± 0.058 kcal/mol | 2.36 ± 0.14 kcal/mol | 1.95 ± 0.099 kcal/mol
13 | SAGGSAGGSMYKVEIEIETSPEGGITIKVTIIPPDGSVIEGNLTPEEVAKRFGFPPPEILELLSAGGSAGGS [r20_235_JUSTAS] | 2.21 ± 0.049 kcal/mol | 3.03 ± 0.062 kcal/mol | 2.48 ± 0.14 kcal/mol
14 | SAGGSAGGSMYVVRAVIRRPKAVPPPLAEEEIDIPVADREITAEEIARLFTPPGYELVRIEADSAGGSAGGS [r12_611_TrMRF] | -0.177 ± 0.19 kcal/mol | -0.36 ± 0.24 kcal/mol | -0.225 ± 0.14 kcal/mol
15 | SAGGSAGGSNEKKYIYRAKITIPGKEGEKPFEIEFESEEEVIELVEKLFPKENIKLEVEKFELDSAGGSAGG [r6_113_TrMRF] | 1.83 ± 0.1 kcal/mol | 2.51 ± 0.12 kcal/mol | 2.33 ± 0.15 kcal/mol
16 | SAGGSAGGSNELLKKLGLKPDQTILVLARPGEIEKLRKEKPIKRIEVTPLPDDLYLYRIEVEGSAGGSAGGS [r12_750_TrMRF] | -0.0878 ± 0.16 kcal/mol | 0.095 ± 0.38 kcal/mol | 0.192 ± 0.19 kcal/mol
17 | SAGGSAGGSNKLVKELAKDPNIKSIFVDTKNKKVYILTDNYLIVIDKNGKIEKIEPISPEKLKSAGGSAGGS [r12_895_TrMRF] | 0.446 ± 0.098 kcal/mol | 1.26 ± 0.15 kcal/mol | 1.16 ± 0.17 kcal/mol
